Series [1] has as its system patients with R/R NHL. The conditions noted are these: human, in vivo; cited from earlier work.
The test system of series [2] is patients with relapsed or refractory follicular lymphoma (R/R FL). As to the kind of experiment: Phase Ib/II study, FL dose-escalation phase: safety (adverse events, DLTs, RP2D) of G+Pola+V. To be noted: in combination with venetoclax 800 mg and obinutuzumab 1000 mg. It counts as in vivo. The text has this: This Example describes a Phase Ib/II study evaluating the safety and efficacy of obinutuzumab (G) in combination with polatuzumab vedotin (Pola) and venetoclax (V) in patients with relapsed or refractory follicular lymphoma (R/R FL) and rituximab (R) in combination with polatuzumab vedotin and venetoclax in patients with relapsed or refractory diffuse large B-cell lymphoma (R/R DLBCL).
This Phase Ib/II, open-label, multicenter, non-randomized study evaluated the safety, efficacy, and pharmacokinetics of obinutuzumab (G)+Polatuzumab vedotin (Pola)+venetoclax (V) in patients with R/R FL and rituximab (R)+Pola+V in patients with R/R DLBCL.
This dose-escalation phase included FL patients only.
All patients enrolled in the dose-escalation phase received induction treatment, administered in 21-day cycles as shown in Table 1. […]
The observation period was based on evaluation of dose-limiting toxicities (DLTs) in cycle 1. […] If no additional DLTs were reported, the next dose could be evaluated. […]
Adverse events are assessed according to the adverse event severity grading scale for the NCI CTCAE (v4.0). […]
Laboratory assessments and adverse events (AEs) were assessed throughout the study, with complete blood counts performed on days 1, 8, and 15 of cycle 1, on day 1 of cycles 2-6, and monthly during maintenance treatment. […]

Here are results for two substances from patent US20230270875A1, “METHODS OF USING ANTI-CD79B IMMUNOCONJUGATES” (Genentech, Inc., priority 2020, published 2023).

Consider obinutuzumab, for which, in series [1], the “Incidence of Grade 3-4 neutropenia” value is listed as 5%.

“polatuzumab vedotin: anti-CD79b immunoconjugate, CAS Registry Number 1313206-42-6; humanized antibody conjugated to MMAE via mc-val-cit-PABC linker”: the “Recommended Phase II dose (RP2D)” value in series [2] came to 1.8 mg/kg.
